The record followed here is PMC3227520 (Biochemistry, 2011).

Sequences and labels used below:
B1: FITC-MIIA^1904–1927 (nonmuscle myosin-IIA 24mer peptide) (peptide)
peptide: {FITC-Ahx}-TETADAMNREVSSLKNKLRRGDLP-NH2
SMILES: CSCC[C@H](NC(=O)[C@H](C)NC(=O)[C@H](CC(=O)O)NC(=O)[C@H](C)NC(=O)[C@@H](NC(=O)[C@H](CCC(=O)O)NC(=O)[C@@H](NC(=O)CCCCCNC(=S)Nc1ccc2c(c1)C(=O)OC21c2ccc(O)cc2Oc2cc(O)ccc21)[C@@H](C)O)[C@@H](C)O)C(=O)N[C@@H](CC(N)=O)C(=O)N[C@@H](CCCNC(=N)N)C(=O)N[C@@H](CCC(=O)O)C(=O)N[C@H](C(=O)N[C@@H](CO)C(=O)N[C@@H](CO)C(=O)N[C@@H](CC(C)C)C(=O)N[C@@H](CCCCN)C(=O)N[C@@H](CC(N)=O)C(=O)N[C@@H](CCCCN)C(=O)N[C@@H](CC(C)C)C(=O)N[C@@H](CCCNC(=N)N)C(=O)N[C@@H](CCCNC(=N)N)C(=O)NCC(=O)N[C@@H](CC(=O)O)C(=O)N[C@@H](CC(C)C)C(=O)N1CCC[C@H]1C(N)=O)C(C)C
B2: wild-type S100A4 (native noncovalent S100A4 dimer) (natural protein)
chain: not shown

Where two headings read alike, the source gives them in different places. Primed or numbered codes have the meaning given here. *: point of attachment. FITC = O=C1OC2(c3ccc(O)cc3Oc3cc(O)ccc32)c2ccc(NC(=S)*)cc21; FITC′ = fluorescein isothiocyanate label; Ahx = NCCCCCC(=O)O

For series [1], the target named is B2. Nature of the series: fluorescence polarisation. On the technique in general: In fluorescence polarisation assays a small probe gives low polarisation when free and higher when bound to something large.
Series [2] addresses B1. Nature of the series: fluorescence polarisation.
The series “cross-linking” concerns the molecule itself. As to the kind of experiment: cross-linking.
Series [3] deals with B2. Nature of the series: fluorescence polarisation. This is another data set of the same source.

As to B1, in series [1], binding was characterised by a dissociation constant (Kd) of 260 ± 30 nM. Consider B2, for which the “stoichiometry N” value in series [2] is 1 S100A4 dimer per peptide.

B3: MIIA^1851–1960 (nonmuscle myosin-IIA heavy chain fragment) (domain or fragment, UniProt P35579 1851-1960, looked up)
chain: VDDERRNAEQYKDQADKASTRLKQLKRQLEEAEEEAQRANASRRKLQRELEDATETADAMNREVSSLKNKLRRGDLPFVVPRRMARKGAGDGSDEEVDGKADGAEAKPAE
On to B3, for which the “stoichiometry N” value in “cross-linking” is 2. In turn, {FITC′-Ahx}-DAMNREVSSLKNKLRR-NH2 [FITC-MIIA^1908–1923 (nonmuscle myosin-IIA peptide, minimal S100A4 binding site)] registered a Kd in series [3] of 1800 ± 200 nM.

Broadly, the Kd is the concentration at which binding is half-saturated. Read a high Kd as weaker binding. A word on the stoichiometry N: it is a count of units in the complex or per binding partner.
